The values that follow come from publication PMC3855764, “Oct4/Sox2 Binding Sites Contribute to Maintaining Hypomethylation of the Maternal Igf2/H19 Imprinting Control Region”.

Holding throughout (details): protein: recombinant
Data set [1] has as its target T1, Oct4 (recombinant) (UniProt P20263 1-352). The data set can be described thus: EMSA; bound both elements equally well; 10 mM Tris pH 8.0, 2 mM MgCl (so in the source), 100 mM KCl, 1.25 mM DTT, 5% glycerol, 0.0625% BSA, 19 ug/ml dGdC, 25 fmol probe in 16 ul, 10 min room temperature; 4% PAGE 0.25X TBE.
Data set [2] concerns the target T2, Sox2 (recombinant) (UniProt P48432 1-319). The data set is described as follows: EMSA; 10 mM Tris pH 8.0, 2 mM MgCl (so in the source), 100 mM KCl, 1.25 mM DTT, 5% glycerol, 0.0625% BSA, 19 ug/ml dGdC, 25 fmol probe in 16 ul, 10 min room temperature; 4% PAGE 0.25X TBE. A general note: A gel shift assay detects complexes by their altered migration in electrophoresis.

For data set [3], the target named is T2, Sox2 (recombinant). The data set is described as follows: EMSA; Sox2 alone; 10 mM Tris pH 8.0, 2 mM MgCl (so in the source), 100 mM KCl, 1.25 mM DTT, 5% glycerol, 0.0625% BSA, 19 ug/ml dGdC, 25 fmol probe in 16 ul, 10 min room temperature; 4% PAGE 0.25X TBE.
For data set [4], the target named is T2, Sox2 (recombinant). The data set is described as follows: EMSA; almost equal to WT; likely via octamer; 10 mM Tris pH 8.0, 2 mM MgCl (so in the source), 100 mM KCl, 1.25 mM DTT, 5% glycerol, 0.0625% BSA, 19 ug/ml dGdC, 25 fmol probe in 16 ul, 10 min room temperature; 4% PAGE 0.25X TBE.
Data set [5] has as its target T1, Oct4 (recombinant). The data set is described as follows: EMSA; Oct4 binding not altered by Sox mutation; 10 mM Tris pH 8.0, 2 mM MgCl (so in the source), 100 mM KCl, 1.25 mM DTT, 5% glycerol, 0.0625% BSA, 19 ug/ml dGdC, 25 fmol probe in 16 ul, 10 min room temperature; 4% PAGE 0.25X TBE.

T1 sequence (P20263 whole entry): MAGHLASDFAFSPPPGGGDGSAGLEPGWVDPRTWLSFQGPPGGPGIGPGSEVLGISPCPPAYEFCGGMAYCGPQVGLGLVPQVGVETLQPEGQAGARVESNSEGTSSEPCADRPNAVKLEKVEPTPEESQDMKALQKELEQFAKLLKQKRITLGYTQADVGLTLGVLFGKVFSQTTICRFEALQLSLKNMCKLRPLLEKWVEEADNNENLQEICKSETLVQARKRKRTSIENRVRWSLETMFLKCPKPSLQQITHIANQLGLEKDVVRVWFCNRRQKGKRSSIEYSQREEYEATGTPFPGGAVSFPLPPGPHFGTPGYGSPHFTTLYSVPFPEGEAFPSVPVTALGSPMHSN
T2 sequence (P48432 whole entry): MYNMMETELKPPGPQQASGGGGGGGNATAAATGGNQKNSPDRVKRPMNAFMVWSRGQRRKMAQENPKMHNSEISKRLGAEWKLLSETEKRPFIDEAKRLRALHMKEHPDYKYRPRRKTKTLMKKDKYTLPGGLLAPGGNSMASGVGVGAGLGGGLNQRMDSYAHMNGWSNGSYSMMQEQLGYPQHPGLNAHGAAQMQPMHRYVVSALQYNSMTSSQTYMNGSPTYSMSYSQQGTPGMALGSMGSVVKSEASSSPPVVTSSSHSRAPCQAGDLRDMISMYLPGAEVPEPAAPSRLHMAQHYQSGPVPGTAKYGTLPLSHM

B1: ICR Sox-OctB (dsDNA)
DNA 1: TTGGGGCGTTCAGATGCTAATGATCTCCGGCT
DNA 2: AGCCGGAGATCATTAGCATCTGAACGCCCCAA
Consider B1, for which the binding result with Oct4 (recombinant) [1] is listed as “binds”.

B2: ICR SoxC (dsDNA)
DNA 1: GCTCAGGGCTGCAAACAATTCTGAAACTGCATTCTC
DNA 2: GAGAATGCAGTTTCAGAATTGTTTGCAGCCCTGAGC
As for B2, the binding result in the data set with Sox2 (recombinant) [2] is reported as “binds”.

B3: ICR Sox-OctA (dsDNA)
DNA 1: CTGGTGATTTGCGCTTTCGTATTCTAATTGGGGAC
DNA 2: GTCCCCAATTAGAATACGAAAGCGCAAATCACCAG
For B3, the binding result with Oct4 (recombinant) [1] and with Sox2 (recombinant) [3] was “binds” each time.

B4: mSA (Sox mutant Sox-OctA) (dsDNA)
DNA 1: CTAAGCGCTACGTCCTAGGTATTCTAATTGGGGAC
DNA 2: GTCCCCAATTAGAATACCTAGGACGTAGCGCTTAG
As to B4, the binding result with Sox2 (recombinant) [4] and with Oct4 (recombinant) [5] was “binds” each time.

B5: mSB (Sox mutant Sox-OctB) (dsDNA)
DNA 1: TTGGGGAACGAAGATGCTAATGATCTCCGGCT
DNA 2: AGCCGGAGATCATTAGCATCTTCGTTCCCCAA
For the molecule B5, the binding result with Oct4 (recombinant) [5] is “binds”.
